Here are results for two molecules from paper PMC6532946, “Structure and assembly of pilotin-dependent and -independent secretins of the type II secretion system” (PLoS Pathogens, 2019).

Data set [1] concerns the target EpsD secretin from V. vulnificus (cell-free synthesized, His-tagged) (V. vulnificus). The experiment in a line: cryo-EM structure; purified multimers in TN buffer with Zw3-14, Quantifoil holey carbon grids with an extra 2 nm carbon layer; 2D class averages of top views; C15 symmetry imposed in the reconstruction.
Data set [2] deals with the molecule itself. The data set is described as above.

Broadly, the stoichiometry N is a count of units in the complex or per binding partner. For “EpsD secretin from V. vulnificus (cell-free synthesized, His-tagged) (natural protein)”, in data set [1], the stoichiometry N stood at 15.

B1: ExeD secretin from A. hydrophila (cell-free synthesized, His-tagged) (natural protein)
chain: TEYSASFKNADIEEFINTVGKNLSKTIIIEPSVRGKINVRSYDLLNEEQYYQFFLSVLDVYGFAVVPMDNGVLKVVRSKDAKTSAIPVVDETNPGIGDEMVTRVVPVRNVSVRELAPLLRQLNDNAGGGNVVHYDPSNVLLITGRAAVVNRLVEVVRRVDKAGDQEVDIIKLKYASAGEMVRLVTNLNKDGNSQGGNTSLLLAPKVVADERTNSVVVSGEPKARARIIQMVRQLDRDLQSQGNTRVFYLKYGKAKDMVEVLKGVSSSIEADKKGGGTATTAGGGASIGGGKLAISADETTNALVITAQPDVMAELEQVVAKLDIRRAQVLVEAIIVEIADGDGLNLGVQWANTNGGGTQFTNAGPGIGSVAIAAKDYKDNGTTTGLAKLAENFNGMAAGFYQGNWAMLVTALSTNTKSDILSTPSIVTMDNKEASFNVGQEVPVQTGTQNSTSGDTTFSTIERKTVGTKLVVTPQINEGDSVLLTIEQEVSSVGKQATGTDGLGPTFDTRTVKNAVLVKSGETVVLGGLMDEQTKEEVSKVPLLGDIPVLGYLFRSTSNNTSKRNLMVFIRPTILRDANVYSGISSNKYTLFRAQQLDAVAQEGYATSPDRQVLPEYGQDVTMSPEAQKQIELMKTHQQATADGVQPFVQGNK
notes: ExeD, T2SS secretin of Aeromonas hydrophila; a TEV cleavage site linker lies between the His-6 tag and the protein. numbers count on: the mature protein; No TEV cleavage is described; also called pilotin-independent ExeD; GspD; source: cell-free expression system with liposomes, extracted as multimers with Zw3-14, purified (Ni-NTA, Superose 6); copies: 15
In the case of B1, the “stoichiometry N” value in data set [2] was 15.
